Measurements: the nanobody polyreactivity screen of Harvey et al. (2022)

experiment: yeast display, Sf9 membrane polyspecificity reagent, FACS + sequencing; frameworks hold sequencing errors
Outline: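 Polyreactivity labels are assigned by the sorting gate from which each nanobody was recovered. The gates were low and high (top ~1%), set on anti-HA fluorescence for expression and streptavidin fluorescence for reagent binding. Before sorting, galactose-induced (36–48 hours) yeast display cells were stained for 1 hour at 4 °C with 10% biotinylated, detergent-solubilized Sf9 membrane reagent.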

| Sequence | polyreactivity (PSR sort gate) |
| --- | --- |
| QVQLVESGGGLVQAGGSLRLSCAASGSTFYPYAMGWYRQAPGKERELVAVISWRGGSTYYADSVKGRFTISRDNAKNTVYLQMNSLKPEDTAVYYCGASGYRGYEYWGQGTQVTVSS | high polyreactivity |
| QDQLVESGGGLVQPGGSLRLSCAASGRTFRFNAMGWYRQAPGKERELVAVITSNDGSTYYADSVKGRFTISRDNAKNTVYLQMNSLKPEDTAVYYCAADWSYAWSWFYYWGQGTQVTVSS | low polyreactivity |
| QVQLVESGGGLVQAGGSLRLSCAASGRIFYPYAMGWYRQAPGKERDLVAAIRRSGVDTYYADSVKGRFTISRDNAKNTVYLQMNSLKPEDTAVYYCNKDGGGDSYWYDYWGQGTQVTVSS | low polyreactivity |
| QVQLVESGGGLVQAGGSLRLSCAASGFTLGWYAMGWYRQAPGKERELVAAISRSGGSTYYADSVKGRFTISRDNAKNTVYLQMNSLKPEDTAVYSCAAEVNYAGWAVWSYYWGQGTQVTVSS | high polyreactivity |
| QVQLVESGGGLVQAGGSHRLSCAASGSIFFSNARGWYRQAPGNERELFAAITWTGGSTYYADSVKGRFTISRDNAKNTVYLQMNSLKPEDTAVYYCNAAHQRDWYYAIYHLYYSPYYYWGQGSQVTVSS | low polyreactivity |
| QVQLVESGGGLVQAGGSLRLSCAASGSTFVYYAMGWYIQAPGKEREFVAGISRSGGSTYYADSVKGRFTISRDNAMNTVYLQMNSLKPEDTAVYSCNASGGLPKYGYWGQGTQVTVSS | high polyreactivity |
| QVQLVESGGGLVQAGGSLRLSCAASGSTFGRNTMGWYRQAPGKERELVAAITSCDTTTYADSVKGRFTISLDNAKNTVYIQMNSLKPEDTAVYYCAVDPVRGLDYSWMDYWGQGTQVTVSS | low polyreactivity |
| QVQLVESGGGLVQAGGSLRLSCAASGSTFTTYAMGWYRQAPGKERELVAAISKSGGSTYYADSVKGRFTISRDNAKNTVYLQMNSLKPEDTAVYYCATSFRSTARKYGYWGQGTQVTVSS | high polyreactivity |
| QVQLVDSGGGLVQAGGSLRLSCAASGIIFRTNAMGWYRQAPGKERELVAAIRWSDGSTYYADSVKGRFTISRDNAKNTVYLQMNSLKPEDTAVYYCNAASQYTFDCSFDDWGQGTQVTVSS | low polyreactivity |
| QVQLVESGGGLVQAGGSLRLSCAASGITFQTYAMGWYRQAPGKERELVAAIRWGGGTTYYADSVKGRFTISRDNAKNTVYLQMNSLKPEDTAVYYCAARTYYRRGGRVDYWGQGTQVTVSS | high polyreactivity |
| QVQLVESGGGLVQAGGSLRLSCAASGFIFKYNAMGWYRQAPGKERELVAAISYRGTRTYYADSVKGRFTISRDNAKNTVYLQMNSLKPEDTAVYYCNAGLTYNHHPYDYWGQGTQVTVSS | high polyreactivity |
| QDQLVESGGALGQAGGSLRLSCAASGSIFFYYAMGCYRQAPGKEREFVAHITSSEASTHYADSVKGRFTISRDTAKNTVYLQMNSLIPEDTAVYYCAADRYPGHRERDFWGQGSQVTVSS | low polyreactivity |
| QVQLVESGGGLFQAGGSLRLSCAASGRIFGSYAMGWYRQAPGKERELVAAIFSAGSTYYADSVKGRFTISRDNAKNTVYLQMNSLKPEDTAVYYCAAGAYWPWGEDYWGQATQVTVSS | high polyreactivity |
| QVQLVESGGGLVQAGGSLRLSCAASGSTFIVYAMGWYRQAPGKERELVAAISLDGGSTYYADSVKGRFTISRDNAKNTVYLQMNSLKPEDTAVYYCNADYYANSITYDSWGQGTQVTVSS | low polyreactivity |
| QVQLVESGGGLVQAGGSLRLSCAASGSIIYQYAMGWYRQAPGKERELVAAITWSGGSTYYADSVKGRFTISRDNAKNTVYLQMNSLKPEDTAVYYCAAYAYGGRINGYRTYRYNYWGQGTQVTVSS | high polyreactivity |
| QVQLVESGGGLVQAGGSLRLSCPASGRIFSFYALGGYRQAPGKERELVAAITYTDGSTYADSVKGRFTISRDNAKNTVYLQMNSLKPEDTAVYYCNAYRGWLLSREMDYWGQGTQVTVSS | low polyreactivity |
| QVQLVESGGGLVQAGGSLRLSCAASGFIFYSYAMGWYRQAPGKERELVAAISFSGSRTYYADSVKGRFTISRDNAKNTVYLQMNSLKPEDTAVYYCAAYYIASRSTRYYYWGQGTQVTVSS | high polyreactivity |
